Assays:
[1] = biological target: human cardiac T53C-IAANS TnC (human) (UniProt P63316); test: stopped-flow fluorescence; apparent; 1 uM TnC T53C-IAANS with saturating Ca2+ and increasing concentrations of TnI128-180, Ca2+ removed with 10 mM EGTA; rate of Ca2+ dissociation followed by IAANS fluorescence; 15°C; 10 mM MOPS, 150 mM KCl, pH 7.0
Troponin C = Troponin C (UniProt P63316); settings: cited from earlier work

Row | Kd [1] | Substance | Kd (Troponin C)
1 | 3000 nM | TnI_(128−180) peptide (from UniProt P19429 128-180) | –
2 | – | Troponin I (from UniProt P19429) | 1200 nM

— publication PMC5175494
